Molecular target: N-terminal GST-like domain of P. berghei glutamyl-tRNA synthetase (ERS-N) (P. berghei)
Assay: SEC-SAXS

Q: What does the source list for “N-terminal GST-like domain of P. berghei glutamyl-tRNA synthetase (ERS-N) (from UniProt A0A509AR09 1-240) (domain or fragment)”?
A: percent of dimers (OLIGOMER fit): 77.9%; percent of tetramers (OLIGOMER fit): 22.1%
